B1: Isoform 2 of Spermatid perinuclear RNA-binding protein (protein)
chain: MVKHSTIYPSPEELEAVQNMVSTVECALKHVSDWLDETNKGTKTEGETEVKKDEAGENYSKDQGGRTLCGVMRIGLVAKGLLIKDDMDLELVLMCKDKPTETLLNTVKDNLPIQIQKLTEEKYQVEQCVNEASIIIRNTKEPTLTLKVILTSPLIRDELEKKDGENVSMKDPPDLLDRQKCLNALASLRHAKWFQARANGLKSCVIVLRILRDLCNRVPTWAPLKGWPLELICEKSIGTCNRPLGAGEALRRVMECLASGILLPGGPGLHDPCERDPTDALSYMTIQQKEDITHSAQHALRLSAFGQIYKVLEMDPLPSSKPFQKYSWSVTDKEGAGSSALKRPFEDGLGDDKDPNKKMKRNLRKILDSKAIDLMNALMRLNQIRPGLQYKLLSQSGPVHAPVFTMSVDVDGTTYEASGPSKKTAKLHVAVKVLQAMGYPTGFDADIECMSSDEKSDNESKNETVSSNSSNNTGNSTTETSSTLEVRTQGPILTASGKNPVMELNEKRRGLKYELISETGGSHDKRFVMEVEVDGQKFRGAGPNKKVAKASAALAALEKLFSGPNAANNKKKKIIPQAKGVVNTAVSAAVQAVRGRGRGTLTRGAFVGATAAPGYIAPGYGTPYGYSTAAPAYGLPKRMVLLPVMKFPTYPVPHYSFF
B2: Pregnancy zone protein (protein)
chain: TEPQYMVLVPSLLHTEAPKKGCVLLSHLNETVTVSASLESGRENRSLFTDLVAEKDLFHCVSFTLPRISASSEVAFLSIQIKGPTQDFRKRNTVLVLNTQSLVFVQTDKPMYKPGQTVRFRVVSVDENFRPRNELIPLIYLENPRRNRIAQWQSLKLEAGINQLSFPLSSEPIQGSYRVVVQTESGGRIQHPFTVEEFVLPKFEVKVQVPKIISIMDEKVNITVCGEYTYGKPVPGLATVSLCRKLSRVLNCDKQEVCEEFSQQLNSNGCITQQVHTKMLQITNTGFEMKLRVEARIREEGTDLEVTANRISEITNIVSKLKFVKVDSHFRQGIPFFAQVLLVDGKGVPIPNKLFFISVNDANYYSNATTNEQGLAQFSINTTSISVNKLFVRVFTVHPNLCFHYSWVAEDHQGAQHTANRVFSLSGSYIHLEPVAGTLPCGHTETITAHYTLNRQAMGELSELSFHYLIMAKGVIVRSGTHTLPVESGDMKGSFALSFPVESDVAPIARMFIFAILPDGEVVGDSEKFEIENCLANKVDLSFSPAQSPPASHAHLQVAAAPQSLCALRAVDQSVLLMKPEAELSVSSVYNLLTVKDLTNFPDNVDQQEEEQGHCPRPFFIHNGAIYVPLSSNEADIYSFLKGMGLKVFTNSKIRKPKSCSVIPSVSAGAVGQGYYGAGLGVVERPYVPQLGTYNVIPLNNEQSSGPVPETVRSYFPETWIWELVAVNSSGVAEVGVTVPDTITEWKAGAFCLSEDAGLGISSTASLRAFQPFFVELTMPYSVIRGEVFTLKATVLNYLPKCIRVSVQLKASPAFLASQNTKGEESYCICGNERQTLSWTVTPKTLGNVNFSVSAEAMQSLELCGNEVVEVPEIKRKDTVIKTLLVEAEGIEQEKTFSSMTCASGANVSEQLSLKLPSNVVKESARASFSVLGDILGSAMQNIQNLLQMPYGCGEQNMVLFAPNIYVLNYLNETQQLTQEIKAKAVGYLITGYQRQLNYKHQDGSYSTFGERYGRNQGNTWLTAFVLKTFAQARSYIFIDEAHITQSLTWLSQMQKDNGCFRSSGSLLNNAIKGGVEDEATLSAYVTIALLEIPLPVTNPIVRNALFCLESAWNVAKEGTHGSHVYTKALLAYAFSLLGKQNQNREILNSLDKEAVKEDNLVHWERPQRPKAPVGHLYQTQAPSAEVEMTSYVLLAYLTAQPAPTSGDLTSATNIVKWIMKQQNAQGGFSSTQDTVVALHALSRYGAATFTRTEKTAQVTVQDSQTFSTNFQVDNNNLLLLQQISLPELPGEYVITVTGERCVYLQTSMKYNILPEKEDSPFALKVQTVPQTCDGHKAHTSFQISLTISYTGNRPASNMVIVDVKMVSGFIPLKPTVKMLERSSSVSRTEVSNNHVLIYVEQVTNQTLSFSFMVLQDIPVGDLKPAIVKVYDYYETDESVVAEYIAPCSTDTEHGNV
B3: Cluster of Interleukin enhancer-binding factor 3 (protein, UniProt Q12906 1-894, looked up)
Interleukin enhancer-binding …: MRPMRIFVNDDRHVMAKHSSVYPTQEELEAVQNMVSHTERALKAVSDWIDEQEKGSSEQAESDNMDVPPEDDSKEGAGEQKTEHMTRTLRGVMRVGLVAKGLLLKGDLDLELVLLCKEKPTTALLDKVADNLAIQLAAVTEDKYEILQSVDDAAIVIKNTKEPPLSLTIHLTSPVVREEMEKVLAGETLSVNDPPDVLDRQKCLAALASLRHAKWFQARANGLKSCVIVIRVLRDLCTRVPTWGPLRGWPLELLCEKSIGTANRPMGAGEALRRVLECLASGIVMPDGSGIYDPCEKEATDAIGHLDRQQREDITQSAQHALRLAAFGQLHKVLGMDPLPSKMPKKPKNENPVDYTVQIPPSTTYAITPMKRPMEEDGEEKSPSKKKKKIQKKEEKAEPPQAMNALMRLNQLKPGLQYKLVSQTGPVHAPIFTMSVEVDGNSFEASGPSKKTAKLHVAVKVLQDMGLPTGAEGRDSSKGEDSAEETEAKPAVVAPAPVVEAVSTPSAAFPSDATAEQGPILTKHGKNPVMELNEKRRGLKYELISETGGSHDKRFVMEVEVDGQKFQGAGSNKKVAKAYAALAALEKLFPDTPLALDANKKKRAPVPVRGGPKFAAKPHNPGFGMGGPMHNEVPPPPNLRGRGRGGSIRGRGRGRGFGGANHGGYMNAGAGYGSYGYGGNSATAGYSQFYSNGGHSGNASGGGGGGGGGSSGYGSYYQGDNYNSPVPPKHAGKKQPHGGQQKPSYGSGYQSHQGQQQSYNQSPYSNYGPPQGKQKGYNHGQGSYSYSNSYNSPGGGGGSDYNYESKFNYSGSGGRSGGNSYGSGGASYNPGSHGGYGGGSGGGSSYQGKQGGYSQSNYNSPGSGQNYSGPPSSYQSSQGGYGRNADHSMNYQYR
B4: Interleukin enhancer-binding factor 3 (protein)
chain: B3 Interleukin enhancer-binding …

Key:
Experiment in all cases: Mass spectroscopy proteomics, semi-quantitative binding affinity of serum proteins (plaqueproteome, Table 2)
Details in all cases: higher number = stronger affinity
[1] = test system: High Density cholesterol (Chl Large) plaque particles; parameters: species or system human
Outline: (§1)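 Atherosclerotic plasma/serum (50% in PBS) + 30 μg cholesterol aggregates, 1 hr 37° C; FACS gates split low- vs high-density particles. Acetone precipitation, urea/ProteaseMAX, acrylamide alkylation, overnight Trypsin/Lys C at 37° C; Sequest search, Scaffold/Protein Prophet validation.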

[2] = test system: Low density cholesterol (Chl small) plaque particles; parameters: species or system human
Outline: as §1

Tau plaque particles = test system: Tau plaque particles; parameters: species or system human
Outline: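 Synthetic Tau-74 and Tau-275 peptides (1 mg/mL PBS, 37° C, 2 h) aggregated; 30 μg aggregates incubated with 50% serum/plasma 1 h at 37° C, stained with Thioflavin S, and plaque particles sorted by flow cytometry. Bound proteins trypsin-digested and identified by MS/MS against human UniProt.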

[3] = biological target: T1, Abeta-42 plaque particles (Homo sapiens, UniProt P05067)
T1 construct: Abeta 1-42
Outline: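 AD patient serum or plasma (50% in PBS) was incubated with Abeta-42 aggregates (30 μg) for 1 h at 37 °C, then stained with Thioflavin S for 30 min. Labeled particles were FACS-sorted, trypsin/Lys-C digested overnight and analyzed by MS/MS. Sequest searched human UniProt; Scaffold/Protein Prophet validated the identifications.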

[4] = biological target: T2, alpha-synuclein plaque particles (Homo sapiens, UniProt P37840)
T2 construct: 140 amino acids polypeptide
Outline: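 AD-subject plasma or serum (800 μL of 50%) mixed with 30 μg preformed alpha-synuclein aggregates for 1 h at 37 °C; Thioflavin S-positive particles isolated by flow sorting. After reduction, acrylamide alkylation and overnight tryptic digestion, serum proteins identified by MS/MS with Sequest and Scaffold.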

Molecule	Semi-quantitative analysis of proteins binding to different plaque particles: Chl Large [1]	Semi-quantitative analysis of proteins binding to different plaque particles: Chl small [2]	Semi-quantitative analysis of proteins binding to different plaque particles: Tau (Tau plaque particles)	Semi-quantitative analysis of proteins binding to different plaque particles: Abeta-42 [3]	Semi-quantitative analysis of proteins binding to different plaque particles: Synuclein [4]
B1	0	0	0	2	0
B2	0	2	0	4	0
B3	0	0	0	4	0
B4	0	0	0	4	0
